Consider two molecules from paper PMC4869151 (ACS Infectious Diseases, 2016).

For experiment [1], the target named is T1, recombinant HAstV-2 capsid protein (Human astrovirus 2 (HAstV-2), entry …, UniProt Q82446, strain). Kind of experiment: pull-down.
Experiment [2] concerns the target T1, recombinant HAstV-2 capsid protein. Kind of experiment: ELISA. Background: An ELISA detects its analyte on a solid surface through an enzyme-linked reagent.

B1: recombinant single-chain variable fragment of the PL-2 antibody (scFv, V domains shown)
VH: DVQLKQSGPGLVQPSQSLSITCTVSGFSLIDYGVHWVRQSPGKGLEWLGVIWTGGSTDYNAAFISRLTISKDNSKSQVFFKMNSLQANDTGIYYCGRPYYGNVMDYWGQGTSVTVSS
VL: DIQMTQTTSSLSASLGDRVTISCRASQDISNYLNWYQQKPDGTVKLLIYYTSRLHSGVPSRFSGSGSGTDYSLTISNLEQEDIATYFCQQGNTFPPTFGGGTKLEIK
On to B1, for which, in experiment [1], the binding result was “binds”.

B2: monoclonal antibody PL-2 (antibody, V domains shown)
VH: DVQLKQSGPGLVQPSQSLSITCTVSGFSLIDYGVHWVRQSPGKGLEWLGVIWTGGSTDYNAAFISRLTISKDNSKSQVFFKMNSLQANDTGIYYCGRPYYGNVMDYWGQGTSVTVSS
VL: DIQMTQTTSSLSASLGDRVTISCRASQDISNYLNWYQQKPDGTVKLLIYYTSRLHSGVPSRFSGSGSGTDYSLTISNLEQEDIATYFCQQGNTFPPTFGGGTKLEIK
B2: in experiment [2], the binding result is listed as “binds”.
